Experiments:
[1] = molecular target: Muc1 mucin carrying the CA6 sialoglycotope (human) (UniProt P15941); assay: flow cytometry on KB cells, apparent Kd
[2] = molecular target: Muc1 on DS6 negative & CM1 positive cell lines (KLE, OVCAR3, SKOV3), without the CA6 epitope (human) (UniProt P15941); assay: flow cytometry on SKOV3 cells, apparent Kd
[3] = molecular target: Muc1 on DS6 negative & CM1 positive cell lines (KLE, OVCAR3, SKOV3), without the CA6 epitope (human) (UniProt P15941); assay: flow cytometry on SKOV3 cells
[4] = molecular target: Muc1 mucin carrying the CA6 sialoglycotope (human) (UniProt P15941); assay: flow cytometry on HeLa cells
[5] = molecular target: Muc1 mucin carrying the CA6 sialoglycotope (human) (UniProt P15941); assay: flow cytometry on BT549 cells, apparent Kd
[6] = molecular target: Muc1 on DS6 negative & CM1 positive cell lines (KLE, OVCAR3, SKOV3), without the CA6 epitope (human) (UniProt P15941); assay: flow cytometry on KLE cells
[7] = molecular target: Muc1 mucin carrying the CA6 sialoglycotope (human) (UniProt P15941); assay: flow cytometry on CaOV3 cells
[8] = molecular target: Muc1 mucin carrying the CA6 sialoglycotope (human) (UniProt P15941); assay: flow cytometry on HeLa cells, apparent Kd
[9] = molecular target: Muc1 on DS6 negative & CM1 positive cell lines (KLE, OVCAR3, SKOV3), without the CA6 epitope (human) (UniProt P15941); assay: flow cytometry on OVCAR3 cells, apparent Kd
[10] = molecular target: Muc1 on DS6 negative & CM1 positive cell lines (KLE, OVCAR3, SKOV3), without the CA6 epitope (human) (UniProt P15941); assay: flow cytometry on KLE cells, apparent Kd
[11] = molecular target: Muc1 mucin carrying the CA6 sialoglycotope (human) (UniProt P15941); assay: flow cytometry on BT549 cells
[12] = molecular target: Muc1 mucin carrying the CA6 sialoglycotope (human) (UniProt P15941); assay: flow cytometry on KB cells
[13] = molecular target: Muc1 mucin carrying the CA6 sialoglycotope (human) (UniProt P15941); assay: flow cytometry on CaOV3 cells, apparent Kd
[14] = molecular target: Muc1 mucin carrying the CA6 sialoglycotope (human) (UniProt P15941); assay: flow cytometry on MCF7 cells, apparent Kd
[15] = molecular target: Muc1 mucin carrying the CA6 sialoglycotope (human) (UniProt P15941); assay: flow cytometry on MCF7 cells
[16] = molecular target: Muc1 on DS6 negative & CM1 positive cell lines (KLE, OVCAR3, SKOV3), without the CA6 epitope (human) (UniProt P15941); assay: flow cytometry on OVCAR3 cells

Kd [1]: 5.34 nM
Kd [2]: 6.25 nM
MMF (maximum mean relative fluorescence) [3]: 49.4
MMF (maximum mean relative fluorescence) [4]: 335
Kd [5]: 6.06 nM
MMF (maximum mean relative fluorescence) [6]: 562
MMF (maximum mean relative fluorescence) [7]: 1030
Kd [8]: 2.91 nM
Kd [9]: 5.95 nM
Kd [10]: 8.16 nM
MMF (maximum mean relative fluorescence) [11]: 188
MMF (maximum mean relative fluorescence) [12]: 338
Kd [13]: 7.48 nM
Kd [14]: 8.69 nM
MMF (maximum mean relative fluorescence) [15]: 1020
MMF (maximum mean relative fluorescence) [16]: 192
Substance: CM1 antibody (Muc1 VNTR antibody)
